We go through one substance from publication doi:10.1101/2024.03.05.583490.

This test concerns the target IR-Rluc (insulin receptor fused to Rluc) (UniProt P06213). Briefly: FRET or BRET. For orientation: In BRET a luciferase serves as donor, and the signal depends on an acceptor being close.

For the substance “IGF1R-YPET F450A (from UniProt P08069 31-1367) (receptor)”, the fold change in BRET50 against the wild type was 2 fold.
